Results from patent US20100331246A1 (INDIANA UNIVERSITY RESEARCH AND TECHNOLOGY, published 2010).
Read-outs that look alike come from different tables or passages of the source.

Legend:
Assay in all cases: cell-based or functional assay
GLP-1 receptor [1] = molecular target: GLP-1 receptor (UniProt P43220)
GLP-1 receptor [2] = molecular target: GLP-1 receptor (UniProt P43220 24-463, limits assumed)
glucagon receptor = glucagon receptor (UniProt P47871 26-477)

GLP-1 receptor (UniProt P43220), sequence (P43220 24-463 limits assumed): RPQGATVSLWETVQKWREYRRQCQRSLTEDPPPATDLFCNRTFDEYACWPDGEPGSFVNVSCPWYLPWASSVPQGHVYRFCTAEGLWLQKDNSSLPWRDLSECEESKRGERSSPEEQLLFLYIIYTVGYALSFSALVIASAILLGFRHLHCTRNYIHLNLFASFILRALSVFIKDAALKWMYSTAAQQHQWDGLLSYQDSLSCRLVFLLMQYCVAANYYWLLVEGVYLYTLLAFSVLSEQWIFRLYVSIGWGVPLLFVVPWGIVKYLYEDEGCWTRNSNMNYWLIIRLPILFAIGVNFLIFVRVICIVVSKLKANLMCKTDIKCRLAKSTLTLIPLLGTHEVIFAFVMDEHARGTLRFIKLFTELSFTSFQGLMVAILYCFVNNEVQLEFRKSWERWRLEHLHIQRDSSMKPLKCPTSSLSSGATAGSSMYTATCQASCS

In the case of (H7F),(E9Q),GLP(8-36)-CEX (peptide), the % potency with respect to GLP-1 (GLP-1 receptor [1]) was 33.3%.

Substance F^5V^6-O-F^7,GLP(8-36)-CEX (peptide) has a % potency with respect to parent (GLP-1 receptor [1]) of 1.3%.

In the case of G^5V^6-O-F^7,GLP(8-36)CEX (peptide), the % potency with respect to parent (GLP-1 receptor [1]) was 12%, the % potency with respect to parent, before incubation (GLP-1 receptor [1]) was 10.9% and the % potency with respect to parent, prodrug incubated in PBS for 24 hrs (GLP-1 receptor [1]) was 46%. The % potency with respect to parent, prodrug incubated in PBS for 168 hrs (GLP-1 receptor [1]) was 95.8%.

HO-F5dV6-O-F7,GLP(8-36)-CEX (peptide) gave a % potency with respect to parent (GLP-1 receptor [2]) of 7%.

For HO-F^5F^6-O-F^7,GLP(8-36)-CEX (peptide), the % potency with respect to parent (GLP-1 receptor [1]) was 3.6%, the % potency with respect to parent, before incubation (GLP-1 receptor [1]) was 3.7% and the % potency with respect to parent, prodrug incubated in PBS for 24 hrs (GLP-1 receptor [1]) was 17.2%.

For “[A2E3, E16K20(Lactam), D28]G(1~29) (peptide)”, the GLP-1 EC50 (GLP-1 receptor [2]) was 0.2 nM and the Glucagon IC50 (glucagon receptor) was 130 nM.

With “[A2E3, E16K20(Lactam), D28]G(2~29) (peptide)” the Glucagon IC50 (glucagon receptor) was 63 nM.

“[E9, E16K20(lactam), D28]G(4~29) (peptide)” was tested, and the GLP-1 EC50 (GLP-1 receptor [2]) was 151 nM and the Glucagon IC50 (glucagon receptor) was 10 to 30 nM.

“[PLA6, D9, E16, E24K28(lactam), D28]G(6~29) (peptide)” gave a GLP-1 EC50 (GLP-1 receptor [2]) of 289 nM and a Glucagon IC50 (glucagon receptor) of 22 nM.

“[PLA6, D9, E16, K20E24(Lactam), D28]G(6-29) (peptide)” was tested, and the GLP-1 EC50 (GLP-1 receptor [2]) was 239 nM and the Glucagon IC50 (glucagon receptor) was 74 nM.

With “[PLA6, D9, E16K20(lactam), D28]G(6-29) (peptide)” the GLP-1 EC50 (GLP-1 receptor [2]) was 5 to 25 nM, the GLP-1 EC50 (GLP-1 receptor [2]; record 2) was 4 nM and the Glucagon IC50 (glucagon receptor) was 10 to 30 nM. For the same substance, the Glucagon IC50 (glucagon receptor; record 2) was 6 nM.

“[PLA6, D9, K12E16(Lactam), D28]G(6-29) (peptide)” was tested, and the GLP-1 EC50 (GLP-1 receptor [2]) was 177 nM, the GLP-1 EC50 (GLP-1 receptor [2]; record 2) was 21 nM and the Glucagon IC50 (glucagon receptor) was 63 nM. The Glucagon IC50 (glucagon receptor; record 2) was 13 nM.
